The source of these data is the Human Domainome abundance scans (Beltran et al. 2025).

± gives the uncertainty stated by the source.

B1: Poly(rC)-binding protein 1, residues 278 to 350; numbered along this chain, Q15365 (parent)
chain: TQTTHELTIPNNLIGCIIGRQGANINEIRQMSGAQIKIANPVEGSSGRQVTITGSAASISLAQYLINARLSSE

The variants in this data set derive from B1. Put plainly: abundance fitness (aPCA) (normalised: wild type 0, dead -1); higher = more abundant; growth selection in yeast, the domain comes from the species named. Particulars: Homo sapiens.
On to I52C, for which the abundance fitness is -1.03 ± 0.27. The value for E43M was 0.05 ± 0.07; that for E43V was 0.073 ± 0.057. The value for E43A was -0.249 ± 0.072. The value for E43Q was -0.258 ± 0.079; that for L65V was -0.789 ± 0.18. On to L65S, for which the abundance fitness is -0.582 ± 0.13. The result for L65R reads -0.689 ± 0.1; that for V50S, -0.882 ± 0.16.

Regarding V50R, the abundance fitness is -0.818 ± 0.11. Take I38P: the abundance fitness is -0.631 ± 0.12. In the case of I38M, the abundance fitness is -0.333 ± 0.077. As for I38W, the abundance fitness is -0.53 ± 0.063.

I38L: the abundance fitness was -0.11 ± 0.048. Consider I38G, for which the abundance fitness is -0.727 ± 0.054. Regarding N40T, the abundance fitness was -0.16 ± 0.06.

Consider N40D, for which the abundance fitness was determined as 0.034 ± 0.07. The value for N40M was -0.052 ± 0.056; that for N40P was -0.002 ± 0.048.

For G19M, the abundance fitness was -0.774 ± 0.17. The value for G19S was -0.473 ± 0.082; that for G19E was -0.431 ± 0.091.

With E73F, the abundance fitness was 0.315 ± 0.48. Turning to E73M, the abundance fitness is 0.245 ± 0.17. Take E73D: the abundance fitness came out at 0.212 ± 0.2.

As for I25W, the abundance fitness was -0.622 ± 0.094. The value for I25Q was -0.564 ± 0.12; that for I25L was -0.072 ± 0.049; that for T8A was -0.124 ± 0.053. In the case of T8K, the abundance fitness was -0.128 ± 0.11. The value for T8E was 0.069 ± 0.052; that for T8M was 0.028 ± 0.085; that for T8V was 0.207 ± 0.042. With T8C, the abundance fitness worked out at 0.098 ± 0.078.

With I28F, the abundance fitness is -0.65 ± 0.22. The value for I28E was -0.895 ± 0.2; that for I28L was -0.143 ± 0.035; that for I28Y was -0.731 ± 0.29. With I28P, the abundance fitness was -0.939 ± 0.13. The value for N67C was -0.193 ± 0.26; that for N67V was -0.504 ± 0.11; that for N67I was -0.194 ± 0.22. The result for N67E reads -0.082 ± 0.075; that for A57S, 0.016 ± 0.042; that for A57E, 0.088 ± 0.05. In the case of A57C, the abundance fitness was -0.035 ± 0.077. On to A57R, for which the abundance fitness worked out at 0.059 ± 0.035. The value for A57V was -0.243 ± 0.046. For A57M, the abundance fitness was -0.204 ± 0.069.

In the case of A39C, the abundance fitness is -0.035 ± 0.089.

With A39D, the abundance fitness amounted to 0.032 ± 0.097. A39Q: the abundance fitness was -0.075 ± 0.077.

With P41A, the abundance fitness amounted to 0.057 ± 0.038. As to P41V, the abundance fitness is -0.218 ± 0.043. With P41D, the abundance fitness was -0.092 ± 0.053. R48D: the abundance fitness is -0.626 ± 0.12. The result for R48G reads -0.597 ± 0.043; that for R48E, -0.752 ± 0.088. The result for R48T reads -0.158 ± 0.049; that for R48Y, 0.045 ± 0.064.

In the case of R48K, the abundance fitness was -0.451 ± 0.066. The result for Q2C reads -0.263 ± 0.064; that for Q2Y, 0.082 ± 0.087; that for Q2P, -0.128 ± 0.079. Turning to Q2I, the abundance fitness came out at 0.118 ± 0.093. The result for T4I reads -0.292 ± 0.15; that for T4P, -0.271 ± 0.077; that for T4E, -0.113 ± 0.066. As for T4V, the abundance fitness was -0.088 ± 0.046. As to T4N, the abundance fitness was -0.138 ± 0.17.

As to Q21L, the abundance fitness was -0.437 ± 0.04. As for Q21E, the abundance fitness was -0.09 ± 0.041.

As for Q21M, the abundance fitness was -0.322 ± 0.054. As for Q21H, the abundance fitness was -0.032 ± 0.083. On to Q21N, for which the abundance fitness was determined as 0.052 ± 0.078. The value for Q21F was -0.236 ± 0.068; that for Q21W was -0.339 ± 0.054. Turning to L70S, the abundance fitness is -0.614 ± 0.34. As for L70W, the abundance fitness was -0.521 ± 0.29. Take Q49W: the abundance fitness is -0.613 ± 0.071.

As for Q49P, the abundance fitness was -0.298 ± 0.064.

On to Q49K, for which the abundance fitness is -0.049 ± 0.063. The result for Q49S reads 0.008 ± 0.04. The result for R20I reads -0.074 ± 0.12; that for R20T, -0.167 ± 0.067.

R20G: the abundance fitness was -0.173 ± 0.038. The value for R20D was 0.042 ± 0.12. Regarding E27M, the abundance fitness was found to be 0.014 ± 0.047. Turning to E27R, the abundance fitness was 0.005 ± 0.031.

On to E27V, for which the abundance fitness was -0.26 ± 0.035. As to E27C, the abundance fitness was -0.169 ± 0.065.

Regarding E27N, the abundance fitness turned out to be 0.08 ± 0.11. The value for K37G was -0.255 ± 0.04. As to K37H, the abundance fitness is -0.272 ± 0.15. The result for K37E reads 0.01 ± 0.051; that for K37F, -0.41 ± 0.22. The value for A56K was 0.029 ± 0.055; that for A56F was 0.032 ± 0.11.

As for A56R, the abundance fitness was -0.039 ± 0.035. The value for A56Y was -0.245 ± 0.091.

Regarding A56C, the abundance fitness is -0.102 ± 0.07.

On to A56L, for which the abundance fitness was found to be 0.026 ± 0.051.

Turning to G54S, the abundance fitness is -0.881 ± 0.11. The result for G54K reads -0.804 ± 0.18; that for G54C, -0.85 ± 0.18. Consider H5C, for which the abundance fitness was 0.104 ± 0.084.

Consider H5W, for which the abundance fitness is 0.091 ± 0.048. With H5G, the abundance fitness was -0.081 ± 0.038. The result for H5I reads 0.113 ± 0.091; that for H5D, -0.323 ± 0.073. With H5V, the abundance fitness was 0.217 ± 0.042.

For the variant H5K, the abundance fitness was found to be 0.107 ± 0.069.

As for L61E, the abundance fitness is 0.091 ± 0.033.

Take L61W: the abundance fitness was -0.238 ± 0.054. The value for L61F was -0.074 ± 0.097; that for L61I was 0.012 ± 0.089. As to L61N, the abundance fitness was -0.278 ± 0.13. With N24W, the abundance fitness is -0.161 ± 0.048.

Take N24Y: the abundance fitness came to 0.01 ± 0.14. In the case of T53G, the abundance fitness is -0.308 ± 0.036. The result for T53M reads -0.063 ± 0.056; that for T53I, -0.125 ± 0.12; that for T53D, -0.51 ± 0.11.

As for T53R, the abundance fitness is -0.007 ± 0.031. With T53K, the abundance fitness is 0.075 ± 0.049. For the variant T53Y, the abundance fitness is -0.129 ± 0.13. R69K: the abundance fitness came to 0.119 ± 0.12. The value for R69Q was -0.016 ± 0.18. The value for R69W was -0.596 ± 0.18; that for R69M was -0.414 ± 0.21; that for R69T was -0.079 ± 0.093. A68E: the abundance fitness is 0.21 ± 0.081. The value for A68V was -0.185 ± 0.07; that for A68W was -0.581 ± 0.17. For A68G, the abundance fitness is -0.122 ± 0.056. For A68I, the abundance fitness is -0.296 ± 0.21. For the variant S58K, the abundance fitness was -0.3 ± 0.06. The result for S58T reads -0.241 ± 0.051; that for S58I, -0.988 ± 0.43. S58G: the abundance fitness is -0.227 ± 0.035.

Regarding S58C, the abundance fitness is -0.241 ± 0.076. For S58M, the abundance fitness was -0.354 ± 0.06.

In the case of S58D, the abundance fitness turned out to be 0.009 ± 0.068. For C16L, the abundance fitness is -0.107 ± 0.048. Consider C16T, for which the abundance fitness came to 0.131 ± 0.063. As for C16D, the abundance fitness was -0.063 ± 0.12.

As to G44L, the abundance fitness was -0.401 ± 0.05. With G44H, the abundance fitness was -0.333 ± 0.1. The value for G44Y was 0.081 ± 0.078; that for G44R was -0.212 ± 0.055; that for G44A was -0.213 ± 0.065. The value for G44S was -0.235 ± 0.049; that for G44K was -0.229 ± 0.066. Take G44T: the abundance fitness was -0.374 ± 0.059. The value for S32A was -0.498 ± 0.074; that for S32T was -0.16 ± 0.048. Take S32G: the abundance fitness was -0.793 ± 0.054. The result for S32L reads -0.703 ± 0.12; that for S45P, -0.442 ± 0.091; that for S45F, -0.009 ± 0.094. The value for S45H was -0.223 ± 0.087. On to S45Y, for which the abundance fitness was -0.044 ± 0.075. For S72I, the abundance fitness was -0.448 ± 0.39. The value for S72C was -0.052 ± 0.16. As for S72L, the abundance fitness was -0.114 ± 0.088.

Turning to S72R, the abundance fitness was 0.123 ± 0.077. With S72A, the abundance fitness was -0.039 ± 0.093.
